Measured values published in the supplement of paper PMC10724198.
± gives the standard deviation of the averaged measurements.

How the values were obtained:
Assay in all cases: protein stability index of tFT-peptide fusion (C-terminal peptide) (PSI (0-1 scale)); higher = more stable (slower turnover)
Saccharomyces cerevisiae [1] = settings: temperature: 30 C
Experimental: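 MPS profiling in S. cerevisiae of the yeast C-terminome library: the last 12 aa of each annotated ORF are fused to the C-terminus of a sfGFP-mCherry timer, after a GGGS linker. Cells are FACS-sorted into 8 mCherry/sfGFP bins and deep-sequenced. PSI runs from 0 (unstable) to 1 (stable); wild type and das1Δ backgrounds, two technical replicates each.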

Saccharomyces cerevisiae [2] = system: Saccharomyces cerevisiae
Experimental: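 MPS profiling in S. cerevisiae of the tFT-X12 degron library: putative degron peptides plus stable controls, 12 aa, fused to the C-terminus of a sfGFP-mCherry timer. Cells are FACS-sorted into 8 mCherry/sfGFP bins and deep-sequenced. PSI runs from 0 (unstable) to 1 (stable). Backgrounds are wild type, das1Δ and doa10Δ at 30 °C, and wild type, das1Δ, cdc34-1 and cdc53-1 at 37 °C; 2-3 technical replicates each.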

Saccharomyces cerevisiae [3] = settings: genetic background: wild type; temperature: 30 C
[4] = genetic background: das1 deletion
[5] = genetic background: cdc34-1, temperature: 37 C
[6] = genetic background: cdc53-1, temperature: 37 C
[7] = genetic background: das1 deletion, temperature: 30 C
[8] = genetic background: das1 deletion, temperature: 37 C
[9] = genetic background: doa10 deletion, temperature: 30 C
[10] = genetic background: wild type, temperature: 30 C
[11] = genetic background: wild type, temperature: 37 C

Row | Sequence | protein stability index (Saccharomyces cerevisiae [1]; [4]) | protein stability index (Saccharomyces cerevisiae [1]; genetic background: wild type) | protein stability index (Saccharomyces cerevisiae [2]; [5]) | protein stability index (Saccharomyces cerevisiae [2]; [6]) | protein stability index (Saccharomyces cerevisiae [2]; [7]) | protein stability index (Saccharomyces cerevisiae [2]; [8]) | protein stability index (Saccharomyces cerevisiae [2]; [9]) | protein stability index (Saccharomyces cerevisiae [2]; [10]) | protein stability index (Saccharomyces cerevisiae [2]; [11]) | protein stability index (Saccharomyces cerevisiae [3])
1 | AAKYLNSLSVNQ [PTP1 C-terminal 12 aa] | 0.698 ± 0.029 | 0.686 ± 0.043 |  |  |  |  |  |  |  | 
2 | ACDNSGLIGIFQ [VPS15 C-terminal 12 aa] | 0.723 ± 0.02 | 0.681 ± 0.069 |  |  |  |  |  |  |  | 
3 | ACFTRLPTPAIL [TRM8 C-terminal 12 aa] | 0.68 ± 0.0089 | 0.6593 ± 0.0055 |  |  |  |  |  |  |  | 
4 | ACFVFSPSAMVT [BRP1 C-terminal 12 aa] | 0.6493 ± 0.0022 | 0.637 ± 0.028 |  |  |  |  |  |  |  | 
5 | ADARDKFVDLYN [ADD66 C-terminal 12 aa] | 0.696 ± 0.027 | 0.708 ± 0.1 |  |  |  |  |  |  |  | 
6 | ADRASVEIIDAN [PFA3 C-terminal 12 aa] | 0.705 ± 0.021 | 0.7046 ± 0.0057 |  |  |  |  |  |  |  | 
7 | ADWKAQRGEDGK [PNG1 C-terminal 12 aa] | 0.67376 ± 7.2e-05 | 0.703 ± 0.014 |  |  |  |  |  |  |  | 
8 | VGVSCVVCVCGV |  |  | 0.493 ± 0.0071 | 0.471 ± 0.02 | 0.289 ± 0.034 | 0.514 ± 0.0077 | 0.2604 ± 0.0024 | 0.295 ± 0.017 | 0.4873 ± 0.0037 | 0.3704 ± 0.0011
9 | VGVVVAIGLVRM |  |  | 0.508 ± 0.013 | 0.575 ± 0.032 | 0.381 ± 0.041 | 0.546 ± 0.0048 | 0.3423 ± 0.00054 | 0.377 ± 0.03 | 0.512 ± 0.019 | 0.4849 ± 0.0037
10 | VICSLFRYIMRL |  |  | 0.414 ± 0.021 | 0.518 ± 0.0071 | 0.571 ± 0.013 | 0.6336 ± 0.0037 | 0.18 ± 0.019 | 0.132 ± 0.0062 | 0.134 ± 0.043 | 0.199 ± 0.0043
11 | VIFFEFFLSFGE |  |  | 0.267 ± 0.0089 | 0.481 ± 0.024 | 0.281 ± 0.026 | 0.452 ± 0.026 | 0.253 ± 0.033 | 0.32 ± 0.025 | 0.433 ± 0.0069 | 0.413 ± 0.0071
12 | VIRIRLSCSVDV |  |  | 0.326 ± 0.04 | 0.42 ± 0.047 | 0.323 ± 0.022 | 0.411 ± 0.0063 | 0.313 ± 0.023 | 0.322 ± 0.021 | 0.387 ± 0.013 | 0.367 ± 0.026
13 | VISVFAISTRVD |  |  | 0.489 ± 0.076 | 0.4901 ± 0.00049 | 0.409 ± 0.057 | 0.5675 ± 0.0051 | 0.398 ± 0.01 | 0.414 ± 0.018 | 0.513 ± 0.066 | 0.475 ± 0.0055
14 | VIVQSWEIIRLN |  |  | 0.553 ± 0.055 | 0.71 ± 0.0093 | 0.604 ± 0.022 | 0.7176 ± 0.0053 | 0.0878 ± 0.0043 | 0.105 ± 0.026 | 0.122 ± 0.0068 | 0.21 ± 0.018
15 | VKVKMKIIIIIK |  |  | 0.243 ± 0.16 | 0.258 ± 0.16 | 0.28 ± 0.044 | 0.416 ± 0.032 | 0.3087 ± 0.0006 | 0.281 ± 0.087 | 0.432 ± 0.012 | 0.341 ± 0.0073
16 | VLGFRPLVFLCF |  |  | 0.235 ± 0.058 | 0.252 ± 0.029 | 0.324 ± 0.029 | 0.4637 ± 0.0028 | 0.392 ± 0.011 | 0.304 ± 0.013 | 0.392 ± 0.0027 | 0.3239 ± 0.0027
17 | VLRACCDWGFLV |  |  | 0.53 ± 0.0055 | 0.696 ± 0.039 | 0.655 ± 0.017 | 0.77382 ± 0.00011 | 0.108 ± 0.0016 | 0.108 ± 0.03 | 0.163 ± 0.024 | 0.161 ± 0.02
18 | VLRLLARRHAMV |  |  | 0.577 ± 0.036 | 0.6735 ± 0.002 | 0.614 ± 0.015 | 0.689 ± 0.013 | 0.148 ± 0.013 | 0.145 ± 0.028 | 0.251 ± 0.02 | 0.308 ± 0.017
19 | VMLFYVGSGVVS |  |  | 0.654 ± 0.053 | 0.688 ± 0.038 | 0.54 ± 0.032 | 0.685 ± 0.016 | 0.545 ± 0.023 | 0.556 ± 0.02 | 0.671 ± 0.014 | 0.485 ± 0.11
20 | VPGCLGRFLFFL |  |  | 0.594 ± 0.025 | 0.6987 ± 0.0066 | 0.573 ± 0.024 | 0.722 ± 0.029 | 0.201 ± 0.032 | 0.218 ± 0.029 | 0.413 ± 0.029 | 0.29 ± 0.024

Row | Sequence | protein stability index (Saccharomyces cerevisiae [1]; [4]) | protein stability index (Saccharomyces cerevisiae [1]; genetic background: wild type) | protein stability index (Saccharomyces cerevisiae [2]; [5]) | protein stability index (Saccharomyces cerevisiae [2]; [6]) | protein stability index (Saccharomyces cerevisiae [2]; [7]) | protein stability index (Saccharomyces cerevisiae [2]; [8]) | protein stability index (Saccharomyces cerevisiae [2]; [9]) | protein stability index (Saccharomyces cerevisiae [2]; [10]) | protein stability index (Saccharomyces cerevisiae [2]; [11]) | protein stability index (Saccharomyces cerevisiae [3])
21 | VRFGYGRIVWDI |  |  | 0.706 ± 0.035 | 0.789 ± 0.048 | 0.6514 ± 0.0055 | 0.808 ± 0.018 | 0.472 ± 0.015 | 0.496 ± 0.032 | 0.68 ± 0.016 | 0.5 ± 0.1
22 | VRGLGFRWVWGW |  |  | 0.747 ± 0.034 | 0.762 ± 0.011 | 0.664 ± 0.0089 | 0.7668 ± 0.0056 | 0.666 ± 0.011 | 0.668 ± 0.013 | 0.772 ± 0.018 | 0.711 ± 0.038
23 | VRHPVVVVRRVI |  |  | 0.663 ± 0.017 | 0.746 ± 0.0067 | 0.649 ± 0.035 | 0.70566 ± 0.00012 | 0.3516 ± 0.0032 | 0.411 ± 0.025 | 0.576 ± 0.0099 | 0.508 ± 0.055
24 | VRRFNVLLYVRG |  |  | 0.459 ± 0.029 | 0.4921 ± 0.0032 | 0.311 ± 0.027 | 0.528 ± 0.0053 | 0.324 ± 0.0045 | 0.321 ± 0.019 | 0.523 ± 0.012 | 0.425 ± 0.0063
25 | VRTFAVSCLCVC |  |  | 0.0897 ± 0.018 | 0.139 ± 0.034 | 0.19 ± 0.019 | 0.23 ± 0.0066 | 0.126 ± 0.0024 | 0.133 ± 0.013 | 0.128 ± 0.0014 | 0.301 ± 0.0037
26 | VSFFCLICRVYP |  |  | 0.371 ± 0.0078 | 0.4463 ± 0.0044 | 0.317 ± 0.033 | 0.4808 ± 0.0037 | 0.298 ± 0.008 | 0.313 ± 0.012 | 0.417 ± 0.039 | 0.434 ± 0.099
27 | VSIRVVVWVSWG |  |  | 0.133 ± 0.0081 | 0.2248 ± 0.00098 | 0.145 ± 0.022 | 0.259 ± 0.011 | 0.121 ± 0.0089 | 0.143 ± 0.02 | 0.223 ± 0.013 | 0.226 ± 0.032
28 | VSLHVFVFLLAS |  |  | 0.255 ± 0.02 | 0.347 ± 0.0036 | 0.249 ± 0.025 | 0.4219 ± 0.0024 | 0.189 ± 0.012 | 0.239 ± 0.027 | 0.378 ± 0.0044 | 0.309 ± 0.043
29 | VSLIYKTIKNRV |  |  | 0.6704 ± 0.0033 | 0.732 ± 0.0082 | 0.595 ± 0.03 | 0.726 ± 0.063 | 0.396 ± 0.049 | 0.397 ± 0.015 | 0.6009 ± 0.001 | 0.517 ± 0.057
30 | VSLSEVAIIVHG |  |  | 0.544 ± 0.025 | 0.611 ± 0.0098 | 0.418 ± 0.035 | 0.596 ± 0.014 | 0.391 ± 0.022 | 0.426 ± 0.022 | 0.5739 ± 0.0012 | 0.517 ± 0.026
31 | VSWWRGVYVVLF |  |  | 0.503 ± 0.019 | 0.5319 ± 0.00099 | 0.388 ± 0.031 | 0.566 ± 0.0089 | 0.342 ± 0.013 | 0.357 ± 0.018 | 0.526 ± 0.023 | 0.518 ± 0.039
32 | VTEGMKEVIKQI |  |  | 0.647 ± 0.014 | 0.702 ± 0.026 | 0.629 ± 0.044 | 0.728 ± 0.013 | 0.3751 ± 0.00062 | 0.402 ± 0.038 | 0.6073 ± 0.0042 | 0.482 ± 0.0079
33 | VVDIFLFFLFVC |  |  | 0.171 ± 0.0036 | 0.192 ± 0.027 | 0.243 ± 0.013 | 0.351 ± 0.021 | 0.186 ± 0.0069 | 0.145 ± 0.0086 | 0.216 ± 0.048 | 0.203 ± 0.015
34 | VVFVFIDLGLCV |  |  | 0.187 ± 0.0053 | 0.326 ± 0.035 | 0.243 ± 0.028 | 0.423 ± 0.0072 | 0.188 ± 0.019 | 0.223 ± 0.018 | 0.4359 ± 0.0027 | 0.266 ± 0.007
35 | VVFVRLGWMRAC |  |  | 0.441 ± 0.034 | 0.52 ± 0.017 | 0.43 ± 0.03 | 0.59 ± 0.018 | 0.0904 ± 0.01 | 0.0972 ± 0.021 | 0.112 ± 0.0058 | 0.172 ± 0.046
36 | VVGILVLASWDL |  |  | 0.184 ± 0.011 | 0.321 ± 0.058 | 0.264 ± 0.041 | 0.426 ± 0.019 | 0.196 ± 0.0056 | 0.225 ± 0.029 | 0.373 ± 0.017 | 0.376 ± 0.045
37 | VVLWTFLLEVSA |  |  | 0.0259 ± 0.011 | 0.0344 ± 0.0033 | 0.0674 ± 0.015 | 0.0951 ± 0.0053 | 0.0508 ± 0.019 | 0.0755 ± 0.033 | 0.101 ± 0.014 | 0.134 ± 0.034
38 | VVLWVVCWGCWK |  |  | 0.237 ± 0.05 | 0.339 ± 0.021 | 0.215 ± 0.038 | 0.432 ± 0.024 | 0.179 ± 0.015 | 0.205 ± 0.029 | 0.421 ± 0.021 | 0.328 ± 0.027
39 | VVSLAVVGRFLV |  |  | 0.616 ± 0.061 | 0.7 ± 0.011 | 0.586 ± 0.024 | 0.7 ± 0.031 | 0.118 ± 0.018 | 0.147 ± 0.018 | 0.263 ± 0.03 | 0.2243 ± 0.0017
